Laboratory results as given in article doi:10.1101/2024.07.08.602551, “An avidity-driven mechanism of extracellular BMP regulation by Twisted gastrulation” (bioRxiv, 2024).

T1: human ΔN-Chordin (human, UniProt Q9H2X0 127-955)
T1 construct: Chordin, human, truncated form missing the N-terminal vWC1 domain but retaining the C-terminal vWC2-4 domains; source: purified, recombinantly expressed; prepared as described previously (Troilo et al., 2014)
T1 sequence (looked up): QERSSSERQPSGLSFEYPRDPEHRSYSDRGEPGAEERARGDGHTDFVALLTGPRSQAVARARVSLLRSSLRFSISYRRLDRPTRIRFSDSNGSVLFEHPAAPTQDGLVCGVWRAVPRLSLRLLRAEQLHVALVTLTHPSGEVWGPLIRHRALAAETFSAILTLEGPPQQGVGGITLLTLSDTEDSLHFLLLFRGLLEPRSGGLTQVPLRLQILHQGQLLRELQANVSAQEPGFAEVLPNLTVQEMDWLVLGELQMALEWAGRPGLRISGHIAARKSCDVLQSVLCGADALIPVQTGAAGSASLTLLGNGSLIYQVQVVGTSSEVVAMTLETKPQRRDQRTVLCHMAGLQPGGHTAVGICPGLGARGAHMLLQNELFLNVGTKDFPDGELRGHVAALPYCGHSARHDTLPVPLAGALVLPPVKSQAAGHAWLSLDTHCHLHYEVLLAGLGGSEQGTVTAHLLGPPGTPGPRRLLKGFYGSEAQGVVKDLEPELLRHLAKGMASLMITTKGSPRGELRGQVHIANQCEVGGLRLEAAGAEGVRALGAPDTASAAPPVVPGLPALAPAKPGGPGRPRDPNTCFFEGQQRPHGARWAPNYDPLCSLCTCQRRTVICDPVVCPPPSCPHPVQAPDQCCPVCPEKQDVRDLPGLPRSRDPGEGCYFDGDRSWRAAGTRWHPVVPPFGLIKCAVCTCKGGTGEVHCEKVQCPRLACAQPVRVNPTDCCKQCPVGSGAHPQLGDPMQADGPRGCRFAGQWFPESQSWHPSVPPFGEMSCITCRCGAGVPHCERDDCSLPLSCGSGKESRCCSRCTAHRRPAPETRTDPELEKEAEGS


Molecular target: T1, human ΔN-Chordin
Assay: SPR; Biacore T200; wildtype or mutant Tsg immobilised on CM5 by amine coupling (350 RU); analyte (ΔN-Chordin or CHRDL2) in a two-fold series, 30 μl/min, 200 s, 300 s dissociation; 20 mM HEPES, 150 mM NaCl, 0.05% Tween20, pH 7.4, 25°C; Langmuir 1:1 fit; triplicate
Conditions: both partners purified

Row | Kd [nM] | Binder
1 | 14 | human Twisted gastrulation (residues Cys26-Phe223) (natural protein, UniProt Q9GZX9 26-223, looked up, Cloned in the vector pHLsec (Addgene_99845) between AgeI and KpnI; secreted; also called Tsg; human Tsg; source: Expi293-F cells, transfected, purified from conditioned media (Strep-Tactin XT, SEC)) CNKALCASDVSKCLIQELCQCRPGEGNCSCCKECMLCLGALWDECCDCVGMCNPRNYSDTPPTSKSTVEELHEPIPSLFRALTEGDTQLNWNIVSFPVAEELSHHENLVSFLETVNQPHHQNVSVPSNNVHAPYSSDKEHMCTVVYFDDCMSIHQCKISCESMGASKYRWFHNACCECIGPECIDYGSKTVKCMNCMF
2 | 60 | human Twisted gastrulation Leu107Ala (natural protein, UniProt Q9GZX9 26-223, looked up, Twisted gastrulation (Tsg), human, residues Cys26-Phe223, with the point mutation L107A; Point mutant of m1 made by PCR and In-Fusion cloning; also called Tsg^L107A; source: Expi293-F cells, transfected, purified from conditioned media (Strep-Tactin XT, SEC)) CNKALCASDVSKCLIQELCQCRPGEGNCSCCKECMLCLGALWDECCDCVGMCNPRNYSDTPPTSKSTVEELHEPIPSLFRAATEGDTQLNWNIVSFPVAEELSHHENLVSFLETVNQPHHQNVSVPSNNVHAPYSSDKEHMCTVVYFDDCMSIHQCKISCESMGASKYRWFHNACCECIGPECIDYGSKTVKCMNCMF
